{"source": "paper doi:10.1101/2020.09.22.308338", "about": "(bioRxiv, 2020)", "binders": {"B1": {"name": "nanobody NM1230 (VHH)", "VHH": "QVQLVESGGGLVRPGGSLRLSCVGSGFTFSGYAMNWYRQAPGKALELVAGISNAGDLTHYEEPMKGRVAISRANDKNTVYLQMDDLKPEDTAVYRCHAPGVRVGTGERKDVWGQGAQVTVSS"}}, "biological_target": "stabilized homotrimeric spike protein of SARS-CoV-2 (SARS-CoV-2 (Wuhan-Hu-1 sequence, strain …, UniProt P0DTC2, stabilised))", "assay": "bead-based multiplex ACE2 competition assay"}
{"binder": "B1", "values": [{"measurement": "binding result", "result": "binds"}]}
